Measured values from US20120156803A1.
pKd: −log10 of the molar value.

Legend:
[1] = biological target: S. frugiperda (FAW) BBMV proteins / receptor(s) (brush border membrane vesicles from wild type, Cry1Fa-sensitive larvae) (Spodoptera frugiperda); test: pull-down competition on FAW BBMVs; ^125I-Cry1Fa remaining bound with 1000 nM unlabeled Cry1Fa competitor
[2] = biological target: BBMVs prepared from Cry1Fa-resistant O. nubilalis (rECB) larvae (Ostrinia nubilalis); test: pull-down competition on rECB BBMVs; ^125I-Cry1Fa remaining bound with 1000 nM unlabeled Cry1Fa competitor
[3] = biological target: O. nubilalis (ECB) BBMV proteins (brush border membrane vesicles from wild type, Cry1Fa-sensitive larvae) (Ostrinia nubilalis); test: pull-down competition on ECB BBMVs; ^125I-Cry1Fa remaining bound with 1000 nM unlabeled Cry1Fa competitor
[4] = biological target: S. frugiperda (FAW) BBMV proteins / receptor(s) (brush border membrane vesicles from wild type, Cry1Fa-sensitive larvae) (Spodoptera frugiperda); test: pull-down competition on FAW BBMVs; ^125I-Cry1Fa remaining bound with 1000 nM unlabeled Cry1Ab competitor
[5] = biological target: S. frugiperda (FAW) BBMV proteins / receptor(s) (brush border membrane vesicles from wild type, Cry1Fa-sensitive larvae) (Spodoptera frugiperda); test: pull-down assay on FAW BBMVs, no competitor, phosphor-imaging densitometry
[6] = biological target: BBMVs prepared from Cry1Fa-resistant S. frugiperda (rFAW) larvae (Spodoptera frugiperda); test: pull-down assay on rFAW BBMVs, no competitor, phosphor-imaging densitometry
[7] = biological target: O. nubilalis (ECB) BBMV proteins (brush border membrane vesicles from wild type, Cry1Fa-sensitive larvae) (Ostrinia nubilalis); test: pull-down assay on ECB BBMVs, no competitor, phosphor-imaging densitometry
[8] = biological target: BBMVs prepared from Cry1Fa-resistant O. nubilalis (rECB) larvae (Ostrinia nubilalis); test: pull-down assay on rECB BBMVs, no competitor, phosphor-imaging densitometry
[9] = biological target: O. nubilalis (ECB) BBMV proteins (brush border membrane vesicles from wild type, Cry1Fa-sensitive larvae) (Ostrinia nubilalis); test: saturation binding of radioligand (0.5-20 nM) to 150 ug/mL ECB BBMV proteins, centrifugation and gamma counting
[10] = biological target: S. frugiperda (FAW) BBMV proteins / receptor(s) (brush border membrane vesicles from wild type, Cry1Fa-sensitive larvae) (Spodoptera frugiperda); test: pull-down competition on FAW BBMVs; ^125I-Cry1Fa remaining bound with 1000 nM unlabeled Cry1Ca competitor

What does the source list for “non-radioactive (unlabeled) Cry1Fa core toxin protein (trypsin-truncated) (from UniProt Q03746 1-603) (ligand)”?
Relative Amounts of radio-iodinated Cry1Fa Protein Bound [1]: 0%; Relative Amounts of radio-iodinated Cry1Fa Protein Bound [2]: 51%; Relative Amounts of radio-iodinated Cry1Fa Protein Bound [3]: 31%

How did the Relative Amounts of radio-iodinated Cry1Fa Protein Bound [4] turn out when “Cry1Ab core toxin protein (from UniProt P0A370 29-607) (ligand)” was run?
Its Relative Amounts of radio-iodinated Cry1Fa Protein Bound is -4%.

Which Relative Amounts of radio-iodinated Cry1Fa Protein Bound [5] does the source give for “^125I radiolabeled fluorescein-Cry1Fa core toxin protein (trypsin-truncated) (from UniProt Q03746 1-603) (ligand)” here?
The Relative Amounts of radio-iodinated Cry1Fa Protein Bound was 100%.

What about the Relative Amounts of radio-iodinated Cry1Fa Protein Bound [6] of the same substance?
Its Relative Amounts of radio-iodinated Cry1Fa Protein Bound is 10%.

What about the Relative Amounts of radio-iodinated Cry1Fa Protein Bound [7] of the same substance?
The Relative Amounts of radio-iodinated Cry1Fa Protein Bound was 100%.

And the Relative Amounts of radio-iodinated Cry1Fa Protein Bound [8]?
Its Relative Amounts of radio-iodinated Cry1Fa Protein Bound is 64%.

What about the Bmax [9] of the same substance?
The Bmax was 37 fmol/mg.

What about the pKd [9] of the same substance?
Its pKd is 7.96.

With “Cry1Ca core toxin protein (from UniProt P0A373) (ligand)” as the substance, how does the Relative Amounts of radio-iodinated Cry1Fa Protein Bound [10] read?
Its Relative Amounts of radio-iodinated Cry1Fa Protein Bound is 50%.
